Results taken from patent US20240317871A1 (IMMUNOMIC THERAPEUTICS, published 2024).

Key:
His-tagged human HVEM = biological target: T1, His-tagged human HVEM (human, UniProt Q92956 39-202, limits assumed); test: BLI OctetRed96, mAb captured, 200 nM His-HVEM
T1 construct: Analyte of the BLI assay, 200 nM in PBS; not shown: His tag
T1 sequence (looked up): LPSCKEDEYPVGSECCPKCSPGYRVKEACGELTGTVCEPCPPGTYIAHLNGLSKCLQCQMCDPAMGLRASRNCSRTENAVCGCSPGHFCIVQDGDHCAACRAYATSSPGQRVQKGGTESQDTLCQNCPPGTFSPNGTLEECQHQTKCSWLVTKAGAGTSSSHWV
How it was run: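 Kinetics (kon, koff, KD) were fitted from association in 200 nM His-HVEM in PBS and dissociation in PBS buffer. The mouse antibodies had been captured directly from culture supernatant onto anti-mouse IgG Fc sensors.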

[1] = biological target: T2, Human HEVM recombinant protein (Sino Biological, 10334-H02H) (human, UniProt Q92956 39-202); test: competition ELISA, competitor BTLA-His
T2 construct: construct known only by catalogue number; also called HVEM; human HVEM
T2 sequence (looked up): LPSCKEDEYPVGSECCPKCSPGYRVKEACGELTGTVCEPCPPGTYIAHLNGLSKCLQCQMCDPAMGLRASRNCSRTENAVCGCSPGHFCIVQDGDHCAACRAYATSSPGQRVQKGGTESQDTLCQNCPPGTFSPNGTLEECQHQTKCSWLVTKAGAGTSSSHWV
Procedure: (§1) The competitive activity of HVEM antibody to BTLA or LIGHT was evaluated with ELISA-based competitive assay. Briefly Human HEVM recombinant protein (Sino Biological, 10334-H02H, 4 ug/ml, 100 ul/well) was coated to ELISA plate (Thermo Scientific, 469949, 4C overnight). A pre-mixture of HVEM antibody clone with seral dilution and 400 nM BTLA-His (R&D systems, 9235-BT-050) or LIGHT-His (SinoBiological, 10386-H07H) recombinant protein was made and added to the ELISA plate after blocking with 3% BSA (200 ul/well, RT 2 Hr) for 1 Hr at RT. The serial dilutions of HVEM antibody clone involve 7 different concentrations, with a 3-fold dilution performed start from 100 nM for BTLA or 325 nM for LIGHT competitive assay. The concentration was the final concentration. Plate was washed with PBST; diluted HRP-anti-His (Biolegend, 652504, 1:1000) with PBS containing 5% FBS was added 100 ul per well for 1 Hr at RT. TMB substrate (KPL, 52-00-00) 100 ul per well after washing and incubate at room temperature for 15 minutes; then stop the development by adding 100 ul stop solution (KPL, 50-85-06). Plate was read at 450 nm. The IC50 was calculated using GraphPad Prism software (GraphPad Software, Inc. San Diego, CA, USA).

murine HVEM = biological target: T3, murine HVEM (murine, UniProt Q80WM9 39-206, limits assumed); test: ELISA
T3 construct: also called Mouse
T3 sequence (looked up): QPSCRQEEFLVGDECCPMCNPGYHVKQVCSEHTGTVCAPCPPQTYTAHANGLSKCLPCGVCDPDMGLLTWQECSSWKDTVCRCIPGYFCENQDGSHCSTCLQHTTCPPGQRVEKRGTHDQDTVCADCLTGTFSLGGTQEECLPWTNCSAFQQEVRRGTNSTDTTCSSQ

cynomolgus monkey HVEM = biological target: T4, cynomolgus monkey HVEM (cynomolgus monkey, UniProt A0A2K5W0R1 39-203); test: ELISA
T4 sequence: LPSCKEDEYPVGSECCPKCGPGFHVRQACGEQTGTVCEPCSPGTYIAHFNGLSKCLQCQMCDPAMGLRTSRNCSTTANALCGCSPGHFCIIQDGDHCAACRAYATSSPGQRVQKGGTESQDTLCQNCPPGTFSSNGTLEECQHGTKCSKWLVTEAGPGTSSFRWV

human HVEM = biological target: T5, human HVEM (human, UniProt Q92956 39-202, limits assumed); test: ELISA
T5 sequence (looked up): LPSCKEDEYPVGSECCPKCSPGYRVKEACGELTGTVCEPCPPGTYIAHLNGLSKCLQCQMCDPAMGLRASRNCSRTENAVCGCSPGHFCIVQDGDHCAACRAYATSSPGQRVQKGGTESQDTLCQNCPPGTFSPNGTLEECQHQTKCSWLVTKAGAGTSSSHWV

[2] = biological target: T2, Human HEVM recombinant protein (Sino …); test: competition ELISA, competitor LIGHT-His
Procedure: as §1

| Binder | Kd (His-tagged human HVEM) [µM] | koff (His-tagged human HVEM) [s⁻¹] | kon (His-tagged human HVEM) [M⁻¹ s⁻¹] | IC50 [1] [µM] | ELISA signal (murine HVEM) | ELISA signal (cynomolgus monkey HVEM) | ELISA signal (human HVEM) | IC50 [2] [µM] |
| --- | --- | --- | --- | --- | --- | --- | --- | --- |
| Ab_026 (H5S15-11A3B) (antibody, V domains shown, also called Ab_26) VH: EVQLQQSGADLVKPGASVKLSCTASGFNIKDTYMHWVKQRPEQGLEWIGRIAPANGRTKYDPKFQGKATITADTSSNTAYLQLSSLTSEDTAVYYCANYYASSYDWFAYWGQGTLVTVSA VL: DVLMTQTPLSLTVSLGHQASISCRSSQSIVHSNGNTYLEWYLQKPGQSPKLLIYKVSNRFSGVPDRFSGSGSGTDFTLKISRVEAEDLGVYYCFQGSHVPLTFGAGTKLELK | 0.0111 | 0.00864 | 776000 | 0.0024 | 0.043 | 0.088 | 3.1 |  |
| Ab_027 (H5S15-17A16A) (antibody, V domains shown, also called Ab_27) VH: EVQLQQSGAELVKPGASVKLSCTASGFNIKDTYMHWVKQRPEQGLEWIGRIAPANGKTKFDPKFQGKATITADTSSNTAYLQLSSLTSEDTAVYYCANYYGRSNDWFVYWGQGTLVTVSA VL: DVLMTQTPLSLPVSLGDQASISCRSSQSIVHSNGITYLEWYLQKPGQSPELLIYKVSNRFSGVPDRFSGSGSGTDFTLKISRVEAEDLGVYYCFQGSHVPLTFGAGTKLELK | 0.00268 | 0.00171 | 639000 | 0.0022 | 0.043 | 0.064 | 3.13 |  |
| Ab_087 (H5S20-59A43A) (antibody, V domains shown, also called Ab_87) VH: EVKLVESGGGLVKPGGSLKLSCAASGFTFSSYAMSWVRQTPEKRLEWVASISSGSSTYYPDSVKGRFTISRDNARNILYLQMSSLRSEDTAMYYCAKGRGYGNYLYAMDYWGQGTSVTVSS VL: DIVMTQSQKFMSTSVGDRVSVTCKASQNVGTNVAWYQQKPGQSPKALIYSASYRYSGVPDRFTGSGSGTDFTLTISNVQSEDLAEYFCQQYNSYPLTFGGGTKLEIK | 1.57 | 0.323 | 206000 | 0.0052 | 0.045 | 0.069 | 3.22 |  |
| Ab_029 (H5S15-14A14B) (antibody, V domains shown, also called Ab_29) VH: EVQLQQSGPELVKPGASVKMSCKASGYTFTSYVMHWVKQKPGQGLEWIGYINPYNDDTNCNEKFKGKATLTSDKSSSTAYMELSRLTSEDSAVYYCAKARGYGSTFYYSMDYWGQGTSVTVSS VL: DIVMTQSQKFMSTSVGDRVSVTCKASQNVGTNVAWYQQRPGQSPKSLIYSASYRYSGVPDRFTGSGSGTDFTLTISNVQSEDLADYFCQQYNSYPYTFGGGAKLEIK | 0.047 | 0.0403 | 858000 | 0.0013 | 0.045 | 0.068 | 3.33 |  |
| Ab_009 (H5S14-8A7A) (antibody, V domains shown, also called Ab_9) VH: EVKLVESGGDLVKPGGSLKLSCAASGFTFSNYAMSWVRQTPEKRLEWVASISTGGTTSYYSDSVKGRFTISRDNARNILYLQMSSLRSEDTAMYYCARGGGGNYFWFTYWGQGTLVTISA VL: DVVMTQTPLSLPVSLGDQASISCRSSQSLVHSNGNTYLHWYLQKPGQSPKLLIYKVSNRFSGVPDRFSGSGSGTDFTLKISRVEAEDLGVYFCSQSTHVPFTFGSGTKLEIK | 0.0351 | 0.0175 | 497000 | 0.0021 | 0.047 | 1.88 | 3.11 |  |
| Ab_054 (H5S19-21A17C) (antibody, V domains shown, also called Ab_54) VH: QVQLKESGPGLVAPSQSLSITCTVSGFSLTSYGVHWVRQPPGKGLEWLGVIWAGGITNYNSALMSRLSISTDNSRSQVFLKMNSLQTDDTAMYYCARDWERDSSGPFPYWGQGTLVTVSA VL: DIQMTQTTSSLSASLGDRVTISCSASQGISNYLNWYQQKPDGTVKLLIYYTSSLHSGVPSRFSGSGSGTDYSLTISNLEPEDIATYFCQQYSKLPWTFGGGTKLEIK | 0.0204 | 0.00291 | 143000 |  | 0.042 | 2.23 | 2.5 | 0.369 |
| Ab_006 (H5S14-5A5A) (antibody, V domains shown, also called Ab_6) VH: DVQLQESGPGLVKPSQSLSLTCTVTGYSITSDFAWNWIRQFPGNKLEWMGYIVYSGSTSYNPSLKSRISITRDTSKNQFFLQLNSVTAEDTATYFCTRGMDYWGQGTSVTVSS VL: QIVLTQSPAIISASLGEEVTLTCSASSSVSYMHWYQQKSGTSPKLLIYSTSNLASGVPSRFSGSGSGTFYSLTISSVEAEDAADYYCHQWSSYLTFGAGTKLELK | 0.0196 | 0.00692 | 353000 |  | 0.043 | 2.69 | 3.14 | 0.0246 |
| Ab_010 (H5S14-10A9A) (antibody, V domains shown, also called Ab_10) VH: not shown VL: DIQMTQSPASLSASVGETVTITCRASENIYSYLAWYQQKQGKSPQLLVYNAKTLAEGVPSRFSGSGSGTQFSLKINSLQPEDFGSYYCQHHYGTMYTFGGGTKLEIK | 7.21 | 1.15 | 159000 | 0.0113 | 0.044 | 0.068 | 2.68 |  |
| Ab_071 (H5S20-3B7A) (antibody, V domains shown, also called Ab_149; Ab_71) VH: QVQLQQSGAELVRPGTSVKISCKASGYTFTNSWLGWVKQRPGHGLEWIGDIYPGGGYNKYNEKFRGKATLTADTSSSTAYMQLSSLTSEDSAVYFCAGAMDYWGQGTSVTVSS VL: not shown | 0.0022 | 0.00093 | 423000 |  | 0.047 | 2.98 | 3.08 | 0.0204 |
| Ab_025 (H5S15-2A2A) (antibody, V domains shown, also called Ab_25) VH: EVQLQQSGAELVKPGASVKLSCTASGFNIKDTYMHWVKQRPEQGLEWIGRIDPANDNTKYDPKFQGKATITADTSSNTAYLQLSSLTSEDTAVYYCARVYYAMDYWGQGTSVTVSS VL: DIQMTQSPASLSASVGETVTITCRASENIYSYLAWYQQKQGKSPQLLVYNAKTLAEGVPSRFSGSGSGTQFSLKINSLQPEDFGSYYCQHHYGTYTFGGGTKLEIK | 0.0116 | 0.00596 | 515000 | 0.01 | 0.045 | 3.16 | 3.01 |  |
| Ab_028 (H5S15-33A29A) (antibody, V domains shown, also called Ab_28) VH: QVQLKQSGPGLVQPSQSLSITCTVSGFSLTTYGVHWVRQSPGKGLEWLGVIWSGGNTDYNPAFISRLSISKDNSKSQVFFKMNTLQASDTAIYYCARRGYNKGYAMDYWGQGTSFTVSS VL: EIVLTQSPALMTASPGEKVTITCSVSSTISSRNLHWYQQKSEASPKPWIYGTSNLASGVPVRFSGSGSGTSYSLTISSMEAEDAATYYCQQWNSYPLTFGSGTKLEIK | 0.0069 | 0.00266 | 386000 | 0.0014 | 0.05 | 2.19 | 3.16 |  |
